The source of these data is publication PMC5606096, “High-level expression and characterization of a novel cutinase from Malbranchea cinnamomea suitable for butyl butyrate production” (Biotechnology for Biofuels, 2017).

Data set [1] has as its system T1, CCCC(=O)Oc1ccc([N+](=O)[O-])cc1.
T1 construct: signal peptide (16 residues) removed, 215-residue precursor; pPIC9K secreted from Pichia pastoris GS115; purified on Q Sepharose; no tag mentioned
In words: p-nitrophenol release, Michaelis-Menten fit (GraFit). It counts as biochemical, Malbranchea cinnamomea. As to conditions: 50 mM Tris-HCl pH 8.0, 45 °C, 5 min.

Data set [2] relates to T2, CCCCCC(=O)Oc1ccc([N+](=O)[O-])cc1.
T2 construct: signal peptide (16 residues) removed, 215-residue precursor; pPIC9K secreted from Pichia pastoris GS115; purified on Q Sepharose; no tag mentioned
Described as above. It counts as biochemical, Malbranchea cinnamomea. As to conditions: 50 mM Tris-HCl pH 8.0, 45 °C, 5 min.

Chain of McCut (Malbranchea cinnamomea) (chain, as listed by the source): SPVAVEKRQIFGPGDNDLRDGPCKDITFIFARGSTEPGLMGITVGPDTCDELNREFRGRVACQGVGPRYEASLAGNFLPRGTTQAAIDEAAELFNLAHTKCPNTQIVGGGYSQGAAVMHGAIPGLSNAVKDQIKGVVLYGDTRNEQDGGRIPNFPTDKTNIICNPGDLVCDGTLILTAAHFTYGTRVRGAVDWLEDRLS

On to McCut (Malbranchea cinnamomea), for which the Km – broadly, the substrate concentration at which the rate is half of its maximum – was 660 µM in data set [1] and 270 µM in data set [2]. The kcat in data set [1] and in data set [2] was 0.46 s⁻¹ in each case.
